{
  "source": "patent US20040175731",
  "about": "“Methods and products for treating staphylococcal infections” (The Brigham and Women's Hospital, Inc., published 2004)",
  "binders": {"B1": {"name": "193-bp MUC ica promoter probe (dsDNA)", "DNA 1": "ATTGCGTTATCAATAATCTTATCCTTCAATTTTTATAACCCCCTACTGAAAATTAATCACACTATGTTACAGGAAAATTAAGTTGCAATTACAAACCGTTTAATTATAACAACAATCTATTGCAAATTAAAATACTATCAATTACCATATGGCTTACAACCTAACTAACGAAAGGTAGGTAAAGAAATTGCAA", "DNA 2": "TTGCAATTTCTTTACCTACCTTTCGTTAGTTAGGTTGTAAGCCATATGGTAATTGATAGTATTTTAATTTGCAATAGATTGTTGTTATAATTAAACGGTTTGTAATTGCAACTTAATTTTCCTGTAACATAGTGTGATTAATTTTCAGTAGGGGGTTATAAAAATTGAAGGATAAGATTATTGATAACGCAAT"}, "B2": {"name": "DEL/MUC 48-bp (dsDNA)", "DNA 1": "CTATGTTACAGGAAAATTAAGTTGCAATTACAAACCGTTTAATTATAA", "DNA 2": "TTATAATTAAACGGTTTGTAATTGCAACTTAATTTTCCTGTAACATAG"}, "B3": {"name": "WTshort 53-bp (dsDNA)", "DNA 1": "CTATGTTACAGGAAAATTAAGTTGCAATTACAAATATTTCCGTTTAATTATAA", "DNA 2": "TTATAATTAAACGGAAATATTTGTAATTGCAACTTAATTTTCCTGTAACATAG"}, "B4": {"name": "198-bp WT ica promoter probe (dsDNA)", "DNA 1": "ATTGCGTTATCAATAATCTTATCCTTCAATTTTTATAACCCCCTACTGAAAATTAATCACACTATGTTACAGGAAAATTAAGTTGCAATTACAAATATTTCCGTTTAATTATAACAACAATCTATTGCAAATTAAAATACTATCAATTACCATATGGCTTACAACCTAACTAACGAAAGGTAGGTAAAGAAATTGCAA", "DNA 2": "TTGCAATTTCTTTACCTACCTTTCGTTAGTTAGGTTGTAAGCCATATGGTAATTGATAGTATTTTAATTTGCAATAGATTGTTGTTATAATTAAACGGAAATATTTGTAATTGCAACTTAATTTTCCTGTAACATAGTGTGATTAATTTTCAGTAGGGGGTTATAAAAATTGAAGGATAAGATTATTGATAACGCAAT"}},
  "key": {"[1]": {"molecular_target": "T1, IcaR (Staphylococcus aureus, UniProt Q9RQQ0 SEQ:1-186)", "T1 sequence": "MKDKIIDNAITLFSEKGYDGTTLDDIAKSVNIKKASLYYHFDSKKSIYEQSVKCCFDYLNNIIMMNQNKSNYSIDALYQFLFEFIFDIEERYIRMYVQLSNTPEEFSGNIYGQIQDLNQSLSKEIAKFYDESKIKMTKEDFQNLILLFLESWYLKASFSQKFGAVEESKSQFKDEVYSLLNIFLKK", "assay": "EMSA; no detectable difference from WT probe", "conditions": "tags: N-terminal His6 (pCRT7-NT); chain copies: 2; label: 32P"}, "[2]": {"molecular_target": "T2, TcaR (Staphylococcus aureus, UniProt Q9F4G3 Q9F4G3:1-151)", "T2 sequence (Q9F4G3 whole entry, one chain of several)": "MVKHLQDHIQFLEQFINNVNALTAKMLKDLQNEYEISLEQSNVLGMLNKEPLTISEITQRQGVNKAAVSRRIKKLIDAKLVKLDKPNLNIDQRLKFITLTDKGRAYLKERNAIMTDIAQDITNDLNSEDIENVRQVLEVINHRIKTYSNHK", "assay": "footprint; data not shown; protection much the same as WT", "conditions": "chain copies: 2; label: 32P"}, "[3]": {"molecular_target": "T1, IcaR", "assay": "EMSA; recombinant IcaR failed to bind either short probe", "conditions": "tags: N-terminal His6 (pCRT7-NT); chain copies: 2; label: 32P"}, "[4]": {"molecular_target": "T1, IcaR", "assay": "EMSA; data not shown", "conditions": "tags: N-terminal His6 (pCRT7-NT); chain copies: 2; label: 32P"}, "[5]": {"molecular_target": "T2, TcaR", "assay": "footprint; data not shown; multiple sites protected, specific and high affinity", "conditions": "chain copies: 2; label: 32P"}, "[6]": {"molecular_target": "T1, IcaR", "assay": "EMSA; on ice; competed by 100x specific competitor", "conditions": "tags: N-terminal His6 (pCRT7-NT); chain copies: 2; label: 32P"}},
  "data": [
    {"binder": "B1", "values": [
      {"measurement": "binding result", "setting": "[1]", "value": "binds"},
      {"measurement": "binding result", "setting": "[2]", "value": "binds"}
    ]},
    {"binder": "B2", "values": [
      {"measurement": "binding result", "setting": "[3]", "value": "no binding"}
    ]},
    {"binder": "B3", "values": [
      {"measurement": "binding result", "setting": "[4]", "value": "no binding"}
    ]},
    {"binder": "B4", "values": [
      {"measurement": "binding result", "setting": "[5]", "value": "binds"},
      {"measurement": "binding result", "setting": "[6]", "value": "binds"}
    ]}
  ]
}
